Results on 91 sequences are retold here after the supplement of paper PMC9112550, “Optimization of the antimicrobial peptide Bac7 by deep mutational scanning” (BMC Biology, 2022).
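Further: peptides expressed intracellularly from a pBAD plasmid library in pooled LB shake-flask culture, induced with 0.3% L-arabinose, DNA abundance read by NGS, three biological replicates, DESeq2 with apeglm shrinkage.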

The series deals with Escherichia coli TOP10. Description: shrunken log2 fold change of peptide-encoding DNA abundance (4.5 h post-induction vs induction); higher = less antimicrobial activity (less host growth inhibition). The conditions noted are these: time post-induction: 4.5 h; library: site-saturation at positions 5, 18, 19, 20.
Turning to RRIRKRPPRLPRPRPRPHFSPRP, the “shrunken log2 fold change” value was -0.0531.

As for RRIRYRPPRLPRPRPRPCEYPRP, the “shrunken log2 fold change” value was -0.138.

RRIRIRPPRLPRPRPRPISNPRP: the “shrunken log2 fold change” value is -0.000216.

Regarding RRIRKRPPRLPRPRPRPFRSPRP, the “shrunken log2 fold change” value is 0.0452.

Take RRIRYRPPRLPRPRPRPFTLPRP: the “shrunken log2 fold change” value was -0.019.

For RRIRYRPPRLPRPRPRPTRAPRP, the “shrunken log2 fold change” value amounted to 0.144.

For the sequence RRIRMRPPRLPRPRPRPIMIPRP, the “shrunken log2 fold change” value was -0.16.

For RRIRKRPPRLPRPRPRPYTFPRP, the “shrunken log2 fold change” value was -0.264.

Turning to RRIRCRPPRLPRPRPRPVQCPRP, the “shrunken log2 fold change” value was determined as 0.207.

Consider RRIRCRPPRLPRPRPRPQGWPRP, for which the “shrunken log2 fold change” value is -0.0139.

As to RRIRVRPPRLPRPRPRPCIKPRP, the “shrunken log2 fold change” value was -0.592.

Consider RRIRTRPPRLPRPRPRPMWCPRP, for which the “shrunken log2 fold change” value is -0.172.

For the sequence RRIRGRPPRLPRPRPRPYQWPRP, the “shrunken log2 fold change” value is 0.0268.

Take RRIRERPPRLPRPRPRPYNPPRP: the “shrunken log2 fold change” value amounted to 0.00932.

In the case of RRIRNRPPRLPRPRPRPVGGPRP, the “shrunken log2 fold change” value was 0.279.

For RRIRPRPPRLPRPRPRPHAYPRP, the “shrunken log2 fold change” value was -0.317.

Turning to RRIRERPPRLPRPRPRPVRKPRP, the “shrunken log2 fold change” value is -0.0457.

For the sequence RRIRCRPPRLPRPRPRPNPTPRP, the “shrunken log2 fold change” value was 0.211.

Consider RRIRLRPPRLPRPRPRPYAFPRP, for which the “shrunken log2 fold change” value was 0.0808.

As for RRIRQRPPRLPRPRPRPNSVPRP, the “shrunken log2 fold change” value is -0.265.

On to RRIRPRPPRLPRPRPRPYLGPRP, for which the “shrunken log2 fold change” value is 3.16.

Take RRIRPRPPRLPRPRPRPRTDPRP: the “shrunken log2 fold change” value came to 0.165.

As for RRIRYRPPRLPRPRPRPGTEPRP, the “shrunken log2 fold change” value is -0.521.

For RRIRERPPRLPRPRPRPLCWPRP, the “shrunken log2 fold change” value was -0.0772.

With RRIRLRPPRLPRPRPRPEPLPRP, the “shrunken log2 fold change” value was found to be 0.0706.

As to RRIRNRPPRLPRPRPRPHWCPRP, the “shrunken log2 fold change” value came to 0.0251.

For RRIRRRPPRLPRPRPRPTVWPRP, the “shrunken log2 fold change” value came out at 0.359.

Consider RRIRERPPRLPRPRPRPSEPPRP, for which the “shrunken log2 fold change” value amounted to 0.227.

For the sequence RRIRKRPPRLPRPRPRPFMEPRP, the “shrunken log2 fold change” value is -0.00271.

In the case of RRIRERPPRLPRPRPRPDVTPRP, the “shrunken log2 fold change” value was 0.00636.

Take RRIRWRPPRLPRPRPRPNGFPRP: the “shrunken log2 fold change” value is 0.128.

As to RRIRSRPPRLPRPRPRPNCRPRP, the “shrunken log2 fold change” value was -0.0318.

For RRIRGRPPRLPRPRPRPIECPRP, the “shrunken log2 fold change” value was found to be 0.146.

Regarding RRIRMRPPRLPRPRPRPVNWPRP, the “shrunken log2 fold change” value was found to be 0.223.

As for RRIRIRPPRLPRPRPRPMMSPRP, the “shrunken log2 fold change” value was -0.00118.

For RRIRRRPPRLPRPRPRPLVRPRP, the “shrunken log2 fold change” value is 0.033.

Turning to RRIRIRPPRLPRPRPRPMEWPRP, the “shrunken log2 fold change” value is -0.00133.

Take RRIRWRPPRLPRPRPRPHMYPRP: the “shrunken log2 fold change” value is -0.443.

As to RRIRPRPPRLPRPRPRPFGRPRP, the “shrunken log2 fold change” value is -0.314.

With RRIRERPPRLPRPRPRPIWHPRP, the “shrunken log2 fold change” value was -0.0406.

Consider RRIRTRPPRLPRPRPRPHESPRP, for which the “shrunken log2 fold change” value was -0.0124.

RRIRNRPPRLPRPRPRPYAPPRP: the “shrunken log2 fold change” value was -0.702.

For RRIRSRPPRLPRPRPRPHIYPRP, the “shrunken log2 fold change” value was -0.607.

RRIRLRPPRLPRPRPRPQWYPRP: the “shrunken log2 fold change” value is -0.426.

For the sequence RRIRVRPPRLPRPRPRPNFRPRP, the “shrunken log2 fold change” value was 0.19.

RRIRMRPPRLPRPRPRPHAHPRP: the “shrunken log2 fold change” value was -0.0269.

Consider RRIRMRPPRLPRPRPRPEYFPRP, for which the “shrunken log2 fold change” value is -0.109.

RRIRWRPPRLPRPRPRPYMGPRP: the “shrunken log2 fold change” value was -0.106.

With RRIRDRPPRLPRPRPRPHPVPRP, the “shrunken log2 fold change” value is -0.0422.

For RRIRPRPPRLPRPRPRPTSNPRP, the “shrunken log2 fold change” value is -0.123.

RRIRTRPPRLPRPRPRPNWNPRP: the “shrunken log2 fold change” value was -0.335.

As to RRIRPRPPRLPRPRPRPTPPPRP, the “shrunken log2 fold change” value turned out to be 0.477.

Turning to RRIRYRPPRLPRPRPRPLAVPRP, the “shrunken log2 fold change” value is -0.0867.

Take RRIRTRPPRLPRPRPRPISPPRP: the “shrunken log2 fold change” value was -0.357.

On to RRIRKRPPRLPRPRPRPAKMPRP, for which the “shrunken log2 fold change” value worked out at 0.376.

On to RRIRCRPPRLPRPRPRPEPWPRP, for which the “shrunken log2 fold change” value was 0.634.

As for RRIRFRPPRLPRPRPRPIYYPRP, the “shrunken log2 fold change” value is -1.24.

RRIRSRPPRLPRPRPRPYRFPRP: the “shrunken log2 fold change” value was -0.134.

As for RRIRLRPPRLPRPRPRPWAVPRP, the “shrunken log2 fold change” value was 0.0558.

In the case of RRIRNRPPRLPRPRPRPDLGPRP, the “shrunken log2 fold change” value worked out at 0.0328.

RRIRQRPPRLPRPRPRPQCGPRP: the “shrunken log2 fold change” value is -0.133.

Turning to RRIRGRPPRLPRPRPRPSAYPRP, the “shrunken log2 fold change” value came out at 1.07.

On to RRIRLRPPRLPRPRPRPFEAPRP, for which the “shrunken log2 fold change” value was -0.256.

For the sequence RRIRNRPPRLPRPRPRPDDRPRP, the “shrunken log2 fold change” value came out at 0.0384.

Regarding RRIRYRPPRLPRPRPRPKTCPRP, the “shrunken log2 fold change” value was -0.0102.

RRIRWRPPRLPRPRPRPLNSPRP: the “shrunken log2 fold change” value is -0.107.

In the case of RRIRYRPPRLPRPRPRPMTTPRP, the “shrunken log2 fold change” value is -0.2.

For the sequence RRIRFRPPRLPRPRPRPSHPPRP, the “shrunken log2 fold change” value is -0.19.

As for RRIRYRPPRLPRPRPRPAPIPRP, the “shrunken log2 fold change” value amounted to 0.226.

For the sequence RRIRVRPPRLPRPRPRPPWRPRP, the “shrunken log2 fold change” value is 0.57.

Take RRIRVRPPRLPRPRPRPSDVPRP: the “shrunken log2 fold change” value was -0.184.

Consider RRIRGRPPRLPRPRPRPHMQPRP, for which the “shrunken log2 fold change” value is -0.121.

Consider RRIRTRPPRLPRPRPRPDAYPRP, for which the “shrunken log2 fold change” value is -0.134.

With RRIRARPPRLPRPRPRPLLHPRP, the “shrunken log2 fold change” value is 0.264.

As for RRIRARPPRLPRPRPRPSEKPRP, the “shrunken log2 fold change” value is -0.312.

Turning to RRIRNRPPRLPRPRPRPDEWPRP, the “shrunken log2 fold change” value is 0.0842.

Consider RRIRIRPPRLPRPRPRPRPCPRP, for which the “shrunken log2 fold change” value is -0.0531.

On to RRIRGRPPRLPRPRPRPCQDPRP, for which the “shrunken log2 fold change” value was -0.233.

On to RRIRLRPPRLPRPRPRPIERPRP, for which the “shrunken log2 fold change” value was -0.155.

RRIRKRPPRLPRPRPRPKEPPRP: the “shrunken log2 fold change” value was 0.074.

As for RRIRVRPPRLPRPRPRPWNQPRP, the “shrunken log2 fold change” value was 0.0232.

Regarding RRIRTRPPRLPRPRPRPSKYPRP, the “shrunken log2 fold change” value was 0.557.

With RRIRHRPPRLPRPRPRPGQPPRP, the “shrunken log2 fold change” value amounted to 0.0384.

Consider RRIRDRPPRLPRPRPRPSRNPRP, for which the “shrunken log2 fold change” value is 0.326.

On to RRIRGRPPRLPRPRPRPMLYPRP, for which the “shrunken log2 fold change” value was determined as 0.322.

As for RRIRKRPPRLPRPRPRPHDCPRP, the “shrunken log2 fold change” value came to 0.108.

Turning to RRIRPRPPRLPRPRPRPDGNPRP, the “shrunken log2 fold change” value was 0.0274.

With RRIRQRPPRLPRPRPRPAFGPRP, the “shrunken log2 fold change” value was determined as 0.171.

On to RRIRIRPPRLPRPRPRPYHNPRP, for which the “shrunken log2 fold change” value is -1.25.

Regarding RRIRQRPPRLPRPRPRPATKPRP, the “shrunken log2 fold change” value was found to be 0.154.

RRIRGRPPRLPRPRPRPGAVPRP: the “shrunken log2 fold change” value was determined as 0.961.
